The term Kd denotes the constant that tells how readily two partners part at equilibrium. Higher therefore signals lower affinity. By stoichiometry N is commonly meant the number of molecules, sites or subunits per partner or assembly. One may read the koff as a measure of how fast the partners let go of each other. The kon is the rate constant with which the complex forms.

In assay [1] the target is type IC cascade from Neisseria lactamica (NlaCascade/crRNA complex) (Neisseria lactamica). Description: SPR; BIAcore T200, NlaCascade/crRNA complex captured on a Ni-NTA chip (711-826 RU), AcrIC9 injected in twofold dilutions from 125 nM (8 to 125 nM), HBS-P buffer (0.01 M HEPES pH 7.4, 0.15 M NaCl, 0.005% P20), 25°C, 1:1 binding model.
For assay [2], the target named is AcrIC9 from Rhodobacter capsulatus (Rhodobacter capsulatus). Description: SEC-MALS; purified AcrIC9 alone on Superdex 200 Increase 10/300 GL, 20 mM Tris-HCl pH 8.0, 150 mM NaCl, room temperature; dimer to monomers. In general terms: SEC sorts molecules by how far they enter the pores of the column.
For assay [3], the target named is type IC cascade from Neisseria lactamica with crRNA (Neisseria lactamica). Description: SPR; BIAcore T200; NlaCascade/crRNA complex captured on a Ni-loaded NTA chip (711-826 RU); AcrIC9 injected in twofold dilutions from 125 nM at 30 ul/min, 120 s contact, 240 s dissociation; 25 °C; HBS-P buffer (0.01 M HEPES pH 7.4, 0.15 M NaCl, 0.005% Surfactant P20); 1:1 binding model.

B1: AcrIC9 from Rhodobacter capsulatus (natural protein)
chain: METKMTSFYKITAYNSQALYFWGTDADVDRYVDWLNRDREINVYAAEAIPEAEWAQYEGRDDVLSGEECGWDDFMSAEA
Turning to B1, in assay [1], the Kd worked out at 4.32 nM. Further, the stoichiometry N in assay [2] worked out at 2. Further, in assay [3], the Kd came to 43.2 nM, the koff came to 0.00404 s⁻¹ and the kon stood at 93500 M⁻¹ s⁻¹.

These data come from PMC10478522.
